Data from article PMC10281526, “Polydom/SVEP1 binds to Tie1 and promotes migration of lymphatic endothelial cells” (The Journal of Cell Biology, 2023).

B1: recombinant Tie1 extracellular domain, Fc fusion protein [not stated] / GST fusion protein of the 20th CCP domain of Polydom [mouse] (parent complex)
chain 1: AVDLTLLANLRLTDPQRFFLTCVSGEAGAGRGSDAWGPPLLLEKDDRIVRTPPGPPLRLARNGSHQVTLRGFSKPSDLVGVFSCVGGAGARRTRVIYVHNSPGAHLLPDKVTHTVNKGDTAVLSARVHKEKQTDVIWKSNGSYFYTLDWHEAQDGRFLLQLPNVQPPSSGIYSATYLEASPLGSAFFRLIVRGCGAGRWGPGCTKECPGCLHGGVCHDHDGECVCPPGFTGTRCEQACREGRFGQSCQEQCPGISGCRGLTFCLPDPYGCSCGSGWRGSQCQEACAPGHFGADCRLQCQCQNGGTCDRFSGCVCPSGWHGVHCEKSDRIPQILNMASELEFNLETMPRINCAAAGNPFPVRGSIELRKPDGTVLLSTKAIVEPEKTTAEFEVPRLVLADSGFWECRVSTSGGQDSRRFKVNVKVPPVPLAAPRLLTKQSRQLVVSPLVSFSGDGPISTVRLHYRPQDSTMDWSTIVVDPSENVTLMNLRPKTGYSVRVQLSRPGEGGEGAWGPPTLMTTDCPEPLLQPWLEGWHVEGTDRLRVSWSLPLVPGPLVGDGFLLRLWDGTRGQERRENVSSPQARTALLTGLTPGTHYQLDVQLYHCTLLGPASPPAHVLLPPSGPPAPRHLHAQALSDSEIQLTWKHPEALPGPISKYVVEVQVAGGAGDPLWIDVDRPEETSTIIRGLNASTRYLFRMRASIQGLGDWSNTVEESTLGNGLQAEGPVQESRAAEEGLDQ
chain 2: IHCSDPQPIENGFVEGADYRYGAMIIYSCFPGFQVLGHAMQTCEESGWSSSSPTCVP

Variants of: B1
Assay: solid-phase binding assay; parent: 1.25; read off a plot

response | Variant
~1.3 A490 | chain 2 R20A
~1.4 A490 | chain 2 Y19A
~1.2 A490 | chain 2 M24A
~1.4 A490 | chain 2 Y21A
~0.53 A490 | chain 2 V14A
~1.3 A490 | chain 2 I26A

More lines, now with the values behind:

Variant | response
chain 2 D18A | ~1.1 A490
chain 2 G16A | ~0.07 A490
chain 2 G22A | ~1.1 A490
chain 2 I25A | ~0.6 A490
chain 2 E15A | ~0.04 A490
chain 2 A23G | ~1.4 A490
chain 2 A17G | ~0.93 A490
